{"source": "paper PMC11532494", "about": "(Nature Communications, 2024)", "key": {"[1]": {"target": "PrpH (propanil hydrolase) of Rhizorhabdus sp. (Rhizorhabdus sp.)", "assay": "crystal structure"}, "[2]": {"target": "Pseudomonas sp. acetylpolyamine amidohydrolase ApaH (Pseudomonas sp.)", "assay": "SEC"}, "[3]": {"test_system": "VsHdaH (1b)", "assay_type": "biochemical, Vibrio sp."}, "[4]": {"test_system": "RsPrpH (1b)", "assay": "Substrate screening assay (acyl-peptide-AMC)", "assay_type": "biochemical, Rhizorhabdus sp."}, "[5]": {"target": "RwDmhA (1b) (Rhizorhabdus wittichii, UniProt A0A067XIQ6)", "assay_type": "biochemical"}, "[6]": {"target": "KpHdaH (1b) (Klebsiella pneumoniae, UniProt A0A377Z5F6)", "assay_type": "biochemical"}, "[7]": {"target": "T1, BsAcuC (2c) (Bacillus subtilis, UniProt P39067)", "T1 construct": "made in house; host or cells: E. coli BL21 (DE3)", "T1 sequence (P39067 1-387)": "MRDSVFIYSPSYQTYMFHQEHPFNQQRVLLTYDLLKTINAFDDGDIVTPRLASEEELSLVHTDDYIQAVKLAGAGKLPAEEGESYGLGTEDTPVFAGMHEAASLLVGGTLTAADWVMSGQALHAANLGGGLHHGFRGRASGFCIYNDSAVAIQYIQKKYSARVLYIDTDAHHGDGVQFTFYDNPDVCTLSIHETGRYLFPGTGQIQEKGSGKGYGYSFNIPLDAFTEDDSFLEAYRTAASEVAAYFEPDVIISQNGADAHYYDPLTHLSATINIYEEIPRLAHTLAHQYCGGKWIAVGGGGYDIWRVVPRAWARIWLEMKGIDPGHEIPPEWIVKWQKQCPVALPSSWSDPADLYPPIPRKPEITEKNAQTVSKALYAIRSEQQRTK", "assay": "Substrate screening assay (acyl-peptide-AMC)", "assay_type": "biochemical", "protocol": "(§1) Experiments with SIRT2 and SIRT5 were supplemented with NAD^+ (500 µM). Thereafter, a solution of trypsin (25 µL, 5.0 mg/mL; final concentration of 2.5 mg/mL) was added, and the development of the assay was allowed to proceed for 90 min at room temperature before fluorescence analysis. […] To this end, a single category is given to all conversions >48% on the heatmap. […] For the H4-derived peptide LGKbio no positive control was available."}, "[8]": {"test_system": "VcHdaH (5b)", "assay_type": "biochemical, Vibrio cholerae"}, "[9]": {"target": "PsApaH (4) (Pseudomonas sp. M30-35, UniProt A0A1Y0KY79)", "assay_type": "biochemical", "protocol": "as §1"}, "[10]": {"target": "LcApaH (3) (Legionella cherrii, UniProt A0A0W0SGS1)", "assay_type": "biochemical"}, "[11]": {"target": "LpApaH (3) (Legionella pneumophila, UniProt A0A2S6EWV0)", "assay_type": "biochemical"}, "[12]": {"test_system": "Controls", "assay_type": "biochemical"}, "[13]": {"test_system": "Controls", "assay_type": "biochemical", "remark": "listed apart in the source"}, "[14]": {"target": "Δ20-37 KpHdaH (Klebsiella pneumoniae)"}, "[15]": {"settings": "substrate screening, mean of two measurements"}, "[16]": {"settings": "substrate screening, measurement 1 of two"}, "[17]": {"settings": "substrate screening, measurement 2 of two"}}, "note": "Where “and” joins values, the source holds several entries; their conditions need not be identical. Identical values can stand only once. Like-named read-outs stand apart in the source and are kept apart here. No end group written: not given here. *: point of attachment. AMC = Cc1cc(=O)oc2cc(N*)ccc12", "data": [{"substance": "PrpH (propanil hydrolase) of Rhizorhabdus sp. (enzyme)", "values": [{"measurement": "stoichiometry N", "setting": "[1]", "value": 4}]}, {"substance": "Pseudomonas sp. acetylpolyamine amidohydrolase ApaH (enzyme)", "values": [{"measurement": "stoichiometry N", "setting": "[2]", "value": 2}]}, {"substance": "QPKKpal (QPKK-{AMC}; not fully specified (residue 4); printed as QPKKpal; also: palmitoyl-lysine (which Lys not given here); UniProt P04637 317-320, looked up, fragment)", "values": [{"measurement": "RFU means, VsHdaH (1b)", "setting": "[3]; means of two measurements", "value": 11, "unit": "RFU"}, {"measurement": "RFU*2 means, VsHdaH (1b)", "setting": "[3]; means of two measurements", "value": 22, "unit": "RFU*2"}, {"measurement": "[AMC] (nM), VsHdaH (1b), means", "setting": "[3]; [15]", "value": 10.74, "unit": "nM"}, {"measurement": "[AMC] (nM), VsHdaH (1b)", "setting": "[3]; [16]", "value": 40.04, "unit": "nM"}, {"measurement": "[AMC] (nM), VsHdaH (1b)", "setting": "[3]; [17]", "value": -18.55, "unit": "nM"}, {"measurement": "RFU means, RsPrpH (1b)", "setting": "[4]", "value": -58.5, "unit": "RFU"}, {"measurement": "RFU*2 means, RsPrpH (1b)", "setting": "[4]", "value": -117, "unit": "RFU*2"}, {"measurement": "[AMC] (nM), RsPrpH (1b), means", "setting": "[4]", "value": -57.13, "unit": "nM"}, {"measurement": "RFU means, RwDmhA (1b)", "setting": "[5]", "value": -48, "unit": "RFU"}, {"measurement": "RFU*2 means, RwDmhA (1b)", "setting": "[5]", "value": -96, "unit": "RFU*2"}, {"measurement": "[AMC] (nM), RwDmhA (1b), means", "setting": "[5]", "value": -46.88, "unit": "nM"}, {"measurement": "RFU means, KpHdaH (1b)", "setting": "[6]; means of two measurements", "value": 2.5, "unit": "RFU"}, {"measurement": "RFU*2 means, KpHdaH (1b)", "setting": "[6]; means of two measurements", "value": 5, "unit": "RFU*2"}, {"measurement": "[AMC] (nM), KpHdaH (1b), means", "setting": "[6]; [15]", "value": 2.44, "unit": "nM"}, {"measurement": "[AMC] (nM), KpHdaH (1b)", "setting": "[6]; [16]", "value": 8.79, "unit": "nM"}, {"measurement": "[AMC] (nM), KpHdaH (1b)", "setting": "[6]; [17]", "value": -3.91, "unit": "nM"}, {"measurement": "RFU means, BsAcuC (2c)", "setting": "[7]; means of two measurements", "value": 77, "unit": "RFU"}, {"measurement": "RFU*2 means, BsAcuC (2c)", "setting": "[7]; means of two measurements", "value": 154, "unit": "RFU*2"}, {"measurement": "[AMC] (nM), BsAcuC (2c), means", "setting": "[7]; [15]", "value": 75.20, "unit": "nM"}, {"measurement": "RFU means, VcHdaH (5b)", "setting": "[8]; means of two measurements", "value": -8.5, "unit": "RFU"}, {"measurement": "RFU*2 means, VcHdaH (5b)", "setting": "[8]; means of two measurements", "value": -17, "unit": "RFU*2"}, {"measurement": "[AMC] (nM), VcHdaH (5b), means", "setting": "[8]; [15]", "value": -8.30, "unit": "nM"}, {"measurement": "RFU means, PsApaH (4)", "setting": "[9]; means of two measurements", "value": 27, "unit": "RFU"}, {"measurement": "RFU*2 means, PsApaH (4)", "setting": "[9]; means of two measurements", "value": 54, "unit": "RFU*2"}, {"measurement": "[AMC] (nM), PsApaH (4), means", "setting": "[9]; [15]", "value": 26.37, "unit": "nM"}, {"measurement": "[AMC] (nM), PsApaH (4)", "setting": "[9]; [16]", "value": 39.06, "unit": "nM"}, {"measurement": "[AMC] (nM), PsApaH (4)", "setting": "[9]; [17]", "value": 13.67, "unit": "nM"}, {"measurement": "RFU means, LcApaH (3)", "setting": "[10]", "value": 26.5, "unit": "RFU"}, {"measurement": "RFU*2 means, LcApaH (3)", "setting": "[10]", "value": 53, "unit": "RFU*2"}, {"measurement": "[AMC] (nM), LcApaH (3), means", "setting": "[10]", "value": 25.88, "unit": "nM"}, {"measurement": "RFU means, LpApaH (3)", "setting": "[11]", "value": 16, "unit": "RFU"}, {"measurement": "RFU*2 means, LpApaH (3)", "setting": "[11]", "value": 32, "unit": "RFU*2"}, {"measurement": "[AMC] (nM), LpApaH (3), means", "setting": "[11]", "value": 15.63, "unit": "nM"}, {"measurement": "RFU means, controls", "setting": "[12]", "value": 9515.5, "unit": "RFU"}, {"measurement": "RFU*2, controls", "setting": "[12]", "value": "16530 RFU*2 and 21532 RFU*2"}, {"measurement": "RFU*2 means, controls", "setting": "[12]", "value": 19031, "unit": "RFU*2"}, {"measurement": "RFU, controls", "setting": "[12]", "value": "8265 RFU and 10766 RFU"}, {"measurement": "[AMC] (nM), controls, means", "setting": "[13]", "value": 9292.48, "unit": "nM"}]}, {"substance": "Δ20-37 KpHdaH (from UniProt A0A377Z5F6 1-371) (enzyme)", "values": [{"measurement": "stoichiometry N", "setting": "[14]", "value": 2}]}]}
